{
  "source": "patent US11141462B2",
  "about": "“Method for the treatment or prevention of osteoarthritis” (Chondropeptix B.V., priority 2016, dated 2021)",
  "key": {"[1]": {"system": "Cartilage explants from OA patient's knee cartilage", "assay": "PGE2 ELISA, cartilage explants", "type": "cell-based, human", "conditions": "14 days", "procedure": "Cartilage explants of 3 mm^2 were taken from OA patient's knee cartilage (n=6) and treated with BMP-7 (1 nM), with peptide […] (SEQ ID NO: 13) at 10 nM or a scrambled irrelevant control peptide (10 nM) for 14 days. Prostaglandin E2 (PGE2) levels, a pro-hypertrophic factor, were determined via an ELISA."}, "[2]": {"system": "Cartilage explants", "assay": "Safranin-O staining of glycosaminoglycans in cartilage explants", "type": "cell-based, human", "conditions": "14 days, explants from 2 patients, compared to control", "procedure": "Cartilage explants obtained from 2 patients were cultured for 14 days in the presence of BMP-7 (1 nM) or BMP-7 mimicking peptide […] (SEQ ID NO: 13) at 10 nM. Glycosaminoglycans (GAGs), an important component of the extracellular matrix (ECM), were stained with Safranin-O (in red) and other tissues are counterstained with Fast green (in green/blue)."}, "[3]": {"system": "Meniscus tissue samples from OA patients", "assay": "PGE2 ELISA, meniscus tissue samples", "type": "cell-based, human", "conditions": "24 h", "procedure": "Meniscus tissue samples from OA patients (n=6) were treated with BMP-7 (1 nM) with peptide peptide […] (SEQ ID NO: 13) at 10 nM or a scrambled irrelevant control peptide (10 nM) for 24 h. PGE2 levels were determined via an ELISA."}, "[4]": {"system": "OA articular chondrocytes", "assay": "OA chondrocyte phenotype gene expression screening of BMP-7 peptides (RT-qPCR)", "type": "cell-based, human", "conditions": "independent of the tested concentration (1000, 100, 10 and 1 nM were tested)", "procedure": "(§1) FIG. 2: The action of 20-mer peptides (10 nM) of SEQ ID NO: 2-17 (peptides with 1 or 2 amino acids intervals (18-19 amino acid overlap)) and a random peptide with a sequence according to SEQ ID NO: 49 on the expression of ADAMTS5 was determined on a validated pool of passage 2 OA human articular chondrocytes (n=18) and compared to full-length recombinant BMP-7 (1 nM). Samples were harvested after 24 hours and analyzed for indicated genes by RT-qPCR (normalized for 28S rRNA expression and relative to control conditions (no peptide exposure)). In the graphs, numbers on the x-axis represent individual peptides according to their SEQ ID NO's, error bars represent mean±SEM, statistical differences were calculated (one-way ANOVA with bonferroni correction) to control condition. *=p<0.05 lower than control condition for ADAMTS5. Random peptide is a peptide according to SEQ ID NO: 49.\nas §1, with “3:” for “2:”, “ALP” for “ADAMTS5”, “ALP.” for “ADAMTS5.”\nas §1, with “4:” for “2:”, “BAPX1/NKX3.2” for “ADAMTS5”, “BAPX1/NKX3.2.” for “ADAMTS5.”\nas §1, with “5:” for “2:”, “COL10A1” for “ADAMTS5”, “COL10A1.” for “ADAMTS5.”\nFIG. 6: The action of 20-mer peptides (10 nM) of SEQ ID NO: 2-17 (peptides with 1 or 2 amino acids intervals (18-19 amino acid overlap)) and a random peptide with a sequence according to SEQ ID NO: 49 on the expression of IL-6 was determined on a validated pool of passage 2 OA human articular chondrocytes (n=18) and compared to full-length recombinant BMP-7 (1 nM). […]"}, "[5]": {"system": "Hoffa's fat pad tissue samples from OA patients", "assay": "PGE2 ELISA, Hoffa's fat pad tissue samples", "type": "cell-based, human", "conditions": "24 h", "procedure": "Hoffa's fat pad tissue samples from OA patients (n=6) were treated with BMP-7 (1 nM) with peptide […] (SEQ ID NO: 13) at 10 nM or a scrambled irrelevant control peptide (10 nM) for 24 h. PGE2 levels were determined via an ELISA."}, "[6]": {"system": "Synovial tissue samples from OA patients", "assay": "PGE2 ELISA, synovial tissue samples", "type": "cell-based, human", "conditions": "24 h", "procedure": "Synovial tissue samples from OA patients (n=6) were treated with BMP-7 (1 nM), with peptide […] (SEQ ID NO: 13) at 10 nM or a scrambled irrelevant control peptide (10 nM) for 24 h. PGE2 levels were determined via an ELISA."}, "[7]": {"system": "Isolated chondrocytes from OA patients", "assay": "Treatment of isolated chondrocytes from OA patients, gene expression by qRT-PCR", "type": "cell-based, human", "conditions": "1 nM, 24 h; qRT-PCR normalized for 28S rRNA; n=6", "procedure": "Isolated chondrocytes from OA patients (n=6) were treated with BMP-7 (1 nM) or the 12-mer peptide according to SEQ ID NO: 43 (1 nM) for 24 h. Pro-chondrogenic (FIG. 8A) and hypertrophic (FIGS. 8B, 8C and 8D) gene expression was determined via qRT-PCR and normalized for 28S rRNA levels."}, "[8]": {"system": "OA chondrocytes", "conditions": "cited from earlier work"}, "[9]": {"system": "OA patients", "conditions": "phase-1 clinical trial in OA patients; intra-articular injection; cited from earlier work"}, "[10]": {"system": "OA in rats", "conditions": "intra-articular administration; cited from earlier work"}, "[11]": {"system": "cartilage explants from OA patient's knee articular cartilage", "assay": "Treatment of cartilage explants, hypertrophic gene expression by qRT-PCR", "type": "cell-based, human", "conditions": "1 nM, 24 h", "procedure": "4 mm 2 cartilage explants were taken from non-lesion areas of OA patient's knee articular cartilage (n=5) and randomly assigned to different experimental treatment conditions (4 explants per treatment group). After a 24 h equilibration period the explants were treated with BMP-7 (1 nM) or the 12-mer peptide according to SEQ ID NO: 43 (10 nM) for 24 h. Hypertrophic gene expression was determined via qRT-PCR and normalized for 28S rRNA levels. After treatment with BMP-7 or the 12 mer we observed a downregulation of pro-hypertrophic genes, such as Col10a1 (FIG. 9A) and MMP13 (FIG. 9B)."}, "[12]": {"system": "Osteoarthritis chondrocytes", "assay": "BMP-7 rescue of OA-associated chondrocyte phenotype (FIG. 1)", "type": "cell-based", "procedure": "FIG. 1: BMP-7 rescues OA-associated chondrocyte phenotype. Osteoarthritis chondrocytes display a typical phenotype that is characterized by decreased expression of SOX9, COL2A1 and BAPX1/NKX3.2 and an increased expression of COX-2 and IL-6 mRNAs (see left panel).\nFunctional ALP enzyme activity in cell lysates and PGE2 secretion in the culture medium was also normalized upon BMP-7 treatment of OA chondrocytes (right panel).\nExpression of indicated mRNAs was determined by RT-qPCR, relatively to control conditions (normalized for 28S rRNA expression). In graphs, error bars represent mean±SEM, statistical differences were calculated as compared to healthy condition. *=p<0.05."}, "[13]": {"system": "IL-1β-exposed chondrocytes", "conditions": "cited from earlier work"}, "[14]": {"conditions": "BMP-7 1 nM, OA chondrocytes, RT-qPCR normalized for 28S rRNA"}, "[15]": {"conditions": "BMP-7 treatment of OA chondrocytes"}},
  "data": [
    {"molecule": "SVLYFDDSSNVILKKYRNMV (listed as Homo sapiens) [SEQ ID NO: 13]", "values": [
      {"measurement": "PGE2 levels", "setting": "[1]; 10 nM", "result": "reduce PGE2 levels"},
      {"measurement": "Safranin-O intensity (glycosaminoglycans)", "setting": "[2]; 10 nM", "result": "increased Safranin-O intensity"},
      {"measurement": "PGE2 levels", "setting": "[3]; 10 nM", "result": "reduce PGE2 levels"},
      {"measurement": "suppression of the OA chondrocyte phenotype", "setting": "[4]", "result": "efficiently suppressed the OA chondrocyte phenotype"},
      {"measurement": "PGE2 levels", "setting": "[5]; 10 nM", "result": "reduce PGE2 levels"},
      {"measurement": "PGE2 levels", "setting": "[6]; 10 nM", "result": "reduce PGE2 levels"}
    ]},
    {"molecule": "BMP-7: full-length recombinant human bone morphogenetic protein-7; mature polypeptide of 139 amino acids (protein, listed as Homo sapiens) STGSKQRSQNRSKTPKNQEALRMANVAENSSSDQRQACKKHELYVSFRDLGWQDWIIAPEGYAAYYCEGECAFPLNSYMNATNHAIVQTLVHFINPETVPKPCCAPTQLNAISVLYFDDSSNVILKKYRNMVVRACGCH", "values": [
      {"measurement": "PGE2 levels", "setting": "[1]; 1 nM", "result": "reduce PGE2 levels"},
      {"measurement": "COL10A1 (pro-hypertrophic) gene expression", "setting": "[7]", "result": "downregulation"},
      {"measurement": "COX-2 (pro-hypertrophic) gene expression", "setting": "[7]", "result": "downregulation"},
      {"measurement": "Col2a1 (pro-chondrogenic) gene expression", "setting": "[7]", "result": "upregulation"},
      {"measurement": "RUNX2 (pro-hypertrophic) gene expression", "setting": "[7]", "result": "downregulation"},
      {"measurement": "Safranin-O intensity (glycosaminoglycans)", "setting": "[2]; 1 nM", "result": "increased Safranin-O intensity"},
      {"measurement": "PGE2 levels", "setting": "[3]; 1 nM", "result": "reduce PGE2 levels"},
      {"measurement": "proteoglycan synthesis", "setting": "[8]", "result": "stimulates"},
      {"measurement": "PGE2 levels", "setting": "[5]; 1 nM", "result": "reduce PGE2 levels"},
      {"measurement": "adverse events", "setting": "[9]", "result": "no serious adverse events"},
      {"measurement": "OA development and progression", "setting": "[10]", "result": "protects against OA development and delays progression of OA"},
      {"measurement": "Col10a1 gene expression", "setting": "[11]", "result": "downregulation"},
      {"measurement": "MMP13 gene expression", "setting": "[11]", "result": "downregulation"},
      {"measurement": "BMP-7 concentration at which OA chondrocyte-phenotype suppressive action is most pronounced", "setting": "[12]", "result": "around 1 nM"},
      {"measurement": "BAPX1/NKX3.2 mRNA expression", "setting": "[12]; [14]", "result": "normalizing expression"},
      {"measurement": "COL2A1 mRNA expression", "setting": "[12]; [14]", "result": "normalizing expression"},
      {"measurement": "COX-2 mRNA expression", "setting": "[12]; [14]", "result": "normalizing expression"},
      {"measurement": "IL-6 mRNA expression", "setting": "[12]; [14]", "result": "normalizing expression"},
      {"measurement": "SOX9 mRNA expression", "setting": "[12]; [14]", "result": "normalizing expression"},
      {"measurement": "effects on the chondrocyte phenotype", "setting": "[12]; BMP-7 concentrations higher than 1 nM (eg 10 nM or 100 nM)", "result": "opposite and negative effects"},
      {"measurement": "Functional ALP enzyme activity in cell lysates", "setting": "[12]; [15]", "result": "normalized"},
      {"measurement": "PGE2 secretion in the culture medium", "setting": "[12]; [15]", "result": "normalized"},
      {"measurement": "PGE2 levels", "setting": "[6]; 1 nM", "result": "reduce PGE2 levels"},
      {"measurement": "MMP13 expression", "setting": "[13]", "result": "decreases"}
    ]}
  ]
}
